± gives the uncertainty stated by the source.
B1: Cyclin-F, residues 28 to 80; numbered along this chain, P41002 (parent)
chain: RNLTILSLPEDVLFHILKWLSVEDILAVRAVHSQLKDLVDNHASVWACASFQE

Variants of: B1
Test: abundance fitness (aPCA) (normalised: wild type 0, dead -1); higher = more abundant; growth selection in yeast, the domain comes from the species named
Settings: Homo sapiens
Work on I25Y yielded an abundance fitness of -0.971 ± 0.23.
With I25C the abundance fitness was -0.527 ± 0.15.
In the case of I25K, the abundance fitness is reported as -0.568 ± 0.15.
Work on P9M yielded an abundance fitness of -1.04 ± 0.21.
P9A gave an abundance fitness of -0.778 ± 0.11.
In the case of P9T, the abundance fitness is reported as -0.69 ± 0.14.
P9R showed an abundance fitness of -0.692 ± 0.088.
For P9H, the abundance fitness was -0.949 ± 0.19.
Work on P9D yielded an abundance fitness of -0.541 ± 0.16.
For P9V, the abundance fitness was -0.59 ± 0.11.
For P9K, the abundance fitness was -0.818 ± 0.15.
V12G showed an abundance fitness of -0.764 ± 0.15.
For V12I, the abundance fitness was 0.033 ± 0.093.
In the case of V12T, the abundance fitness is reported as -0.493 ± 0.13.
V12L gave an abundance fitness of -0.281 ± 0.096.
Variant L26I has an abundance fitness of -0.023 ± 0.29.
L26E gave an abundance fitness of -0.5 ± 0.13.
With V22Y the abundance fitness was 0.02 ± 0.098.
In the case of V22C, the abundance fitness is reported as -0.286 ± 0.091.
For T4K, the abundance fitness was -0.611 ± 0.22.
T4R gave an abundance fitness of -0.735 ± 0.1.
A30L gave an abundance fitness of 0.377 ± 0.075.
In the case of A30N, the abundance fitness is reported as -0.356 ± 0.21.
A30K gave an abundance fitness of -0.339 ± 0.14.
A30W showed an abundance fitness of -0.836 ± 0.12.
With L8A the abundance fitness was -0.509 ± 0.31.
Q52T gave an abundance fitness of -0.135 ± 0.11.
Variant Q52H has an abundance fitness of -0.108 ± 0.33.
Q52R showed an abundance fitness of -0.02 ± 0.1.
Work on Q52L yielded an abundance fitness of -0.07 ± 0.097.
Work on Q52K yielded an abundance fitness of 0.011 ± 0.17.
Q34D showed an abundance fitness of -0.446 ± 0.087.
For Q34S, the abundance fitness was -0.06 ± 0.065.
Work on Q34E yielded an abundance fitness of -0.455 ± 0.078.
Work on K18A yielded an abundance fitness of -0.314 ± 0.13.
Work on K18G yielded an abundance fitness of -0.132 ± 0.1.
L17A gave an abundance fitness of -0.781 ± 0.13.
L3D gave an abundance fitness of -0.598 ± 0.21.
Work on L3A yielded an abundance fitness of -0.708 ± 0.13.
Variant L3I has an abundance fitness of -0.112 ± 0.17.
For L3W, the abundance fitness was -0.596 ± 0.1.
In the case of L3G, the abundance fitness is reported as -0.435 ± 0.079.
S50H gave an abundance fitness of -0.319 ± 0.16.
In the case of S50W, the abundance fitness is reported as -0.434 ± 0.098.
With S50D the abundance fitness was 0.029 ± 0.14.
C48K gave an abundance fitness of -0.307 ± 0.16.
C48N showed an abundance fitness of 0.184 ± 0.17.
Work on C48G yielded an abundance fitness of 0.179 ± 0.088.
For C48A, the abundance fitness was -0.232 ± 0.11.
C48H gave an abundance fitness of -0.302 ± 0.15.
C48Y showed an abundance fitness of -0.367 ± 0.12.
In the case of A27Q, the abundance fitness is reported as -0.089 ± 0.18.
Work on A27V yielded an abundance fitness of -0.238 ± 0.084.
V45G gave an abundance fitness of -0.149 ± 0.095.
V45T showed an abundance fitness of 0.131 ± 0.13.
Variant V45K has an abundance fitness of 0.181 ± 0.12.
In the case of V45W, the abundance fitness is reported as 0.1 ± 0.14.
Work on H42K yielded an abundance fitness of -0.068 ± 0.12.
H42R showed an abundance fitness of -0.175 ± 0.085.
In the case of A43E, the abundance fitness is reported as -0.343 ± 0.36.
Work on L35Q yielded an abundance fitness of -0.861 ± 0.18.
In the case of L35K, the abundance fitness is reported as -0.805 ± 0.2.
For L38F, the abundance fitness was 0.07 ± 0.13.
In the case of L38A, the abundance fitness is reported as -0.075 ± 0.094.
L13K showed an abundance fitness of -0.431 ± 0.23.
L13Y gave an abundance fitness of -0.306 ± 0.37.
A49P gave an abundance fitness of 0.126 ± 0.13.
A49V showed an abundance fitness of -0.609 ± 0.11.
Work on A49W yielded an abundance fitness of -0.443 ± 0.12.
In the case of E10S, the abundance fitness is reported as -0.233 ± 0.082.
For E10Y, the abundance fitness was -0.505 ± 0.14.
With H15A the abundance fitness was -0.279 ± 0.14.
In the case of H15I, the abundance fitness is reported as -0.21 ± 0.19.
A47H showed an abundance fitness of -0.29 ± 0.26.
In the case of A47V, the abundance fitness is reported as -0.513 ± 0.12.
V31W showed an abundance fitness of -0.769 ± 0.19.
In the case of V31N, the abundance fitness is reported as -0.586 ± 0.31.
V31E showed an abundance fitness of -1.16 ± 0.24.
L20V gave an abundance fitness of -0.484 ± 0.11.
In the case of L20C, the abundance fitness is reported as -0.42 ± 0.16.
Work on L20Y yielded an abundance fitness of -0.75 ± 0.29.
For L20K, the abundance fitness was -0.838 ± 0.41.
E23A showed an abundance fitness of -0.053 ± 0.14.
E23V gave an abundance fitness of -0.372 ± 0.13.
For E23G, the abundance fitness was -0.48 ± 0.12.
With S33K the abundance fitness was -0.294 ± 0.091.
With S33I the abundance fitness was -0.855 ± 0.14.
For S33E, the abundance fitness was -0.675 ± 0.081.
For S33F, the abundance fitness was -0.801 ± 0.11.
For L6F, the abundance fitness was -0.356 ± 0.16.
Work on L6W yielded an abundance fitness of -0.678 ± 0.12.
L6A showed an abundance fitness of -0.898 ± 0.15.
With L6K the abundance fitness was -0.806 ± 0.18.
For E53R, the abundance fitness was -0.068 ± 0.15.
Variant E53K has an abundance fitness of 0.081 ± 0.26.
E53F gave an abundance fitness of -0.582 ± 0.42.
For N2V, the abundance fitness was -0.089 ± 0.11.
With N2Q the abundance fitness was -0.331 ± 0.14.
For N2D, the abundance fitness was -0.306 ± 0.19.
With N2P the abundance fitness was -0.185 ± 0.11.
Work on N2C yielded an abundance fitness of -0.357 ± 0.12.
V28A gave an abundance fitness of -0.774 ± 0.13.
In the case of V28Q, the abundance fitness is reported as -0.716 ± 0.2.
With V28R the abundance fitness was -0.833 ± 0.12.
R29L gave an abundance fitness of -0.833 ± 0.11.
With R29V the abundance fitness was -0.541 ± 0.12.
Work on R29S yielded an abundance fitness of -0.655 ± 0.1.
In the case of R29N, the abundance fitness is reported as -0.955 ± 0.19.
R29A showed an abundance fitness of -0.827 ± 0.19.
For D11K, the abundance fitness was 0.269 ± 0.14.
With D11C the abundance fitness was -0.18 ± 0.12.
In the case of D11P, the abundance fitness is reported as -0.132 ± 0.16.
For V39Q, the abundance fitness was -0.362 ± 0.3.
For V39S, the abundance fitness was -0.445 ± 0.12.
I5F gave an abundance fitness of -0.254 ± 0.16.
For I5L, the abundance fitness was 0.12 ± 0.091.
In the case of I5M, the abundance fitness is reported as -0.254 ± 0.12.
For I5N, the abundance fitness was -0.907 ± 0.19.
With I5E the abundance fitness was -0.679 ± 0.21.
With I5D the abundance fitness was -0.868 ± 0.14.
N41G gave an abundance fitness of -0.033 ± 0.11.
With N41S the abundance fitness was 0.052 ± 0.1.
N41Y showed an abundance fitness of -0.569 ± 0.27.
Work on N41M yielded an abundance fitness of -0.272 ± 0.16.
In the case of N41F, the abundance fitness is reported as -0.692 ± 0.19.
Work on H32K yielded an abundance fitness of -0.912 ± 0.2.
Work on H32I yielded an abundance fitness of -0.825 ± 0.23.
H32R showed an abundance fitness of -0.787 ± 0.11.
Variant H32N has an abundance fitness of 0.262 ± 0.1.
Work on H32W yielded an abundance fitness of -0.937 ± 0.19.
For H32A, the abundance fitness was -0.438 ± 0.1.
Work on D37M yielded an abundance fitness of 0.158 ± 0.14.
D37H gave an abundance fitness of -0.086 ± 0.17.
For D37W, the abundance fitness was -0.42 ± 0.13.
D37F showed an abundance fitness of -0.222 ± 0.16.
Work on D37C yielded an abundance fitness of 0.012 ± 0.13.
With D37T the abundance fitness was 0.076 ± 0.12.
Work on D37N yielded an abundance fitness of -0.017 ± 0.13.
Work on K36C yielded an abundance fitness of -0.915 ± 0.18.
For K36Q, the abundance fitness was -0.609 ± 0.23.
Work on K36A yielded an abundance fitness of -0.561 ± 0.13.
Work on K36Y yielded an abundance fitness of -0.883 ± 0.23.
D24W gave an abundance fitness of -0.717 ± 0.14.
D24S showed an abundance fitness of -0.882 ± 0.12.
Work on D24G yielded an abundance fitness of -0.624 ± 0.1.
Variant D24Q has an abundance fitness of -0.739 ± 0.31.
In the case of D24K, the abundance fitness is reported as -0.832 ± 0.2.
With F14L the abundance fitness was 0.179 ± 0.074.
With F14Y the abundance fitness was -0.153 ± 0.15.
For W19L, the abundance fitness was 0.293 ± 0.084.
W19Y showed an abundance fitness of 0.397 ± 0.17.
W19R gave an abundance fitness of -0.154 ± 0.097.
For S7Y, the abundance fitness was -0.869 ± 0.22.
S7W gave an abundance fitness of -0.693 ± 0.12.
In the case of S7V, the abundance fitness is reported as -0.647 ± 0.11.
Work on S7H yielded an abundance fitness of -0.242 ± 0.15.
Work on S7D yielded an abundance fitness of 0.101 ± 0.13.
S7I showed an abundance fitness of -0.426 ± 0.2.
S21A gave an abundance fitness of -0.113 ± 0.1.
Variant S21G has an abundance fitness of -0.226 ± 0.1.
With S21T the abundance fitness was -0.126 ± 0.1.
In the case of W46Y, the abundance fitness is reported as -0.469 ± 0.2.
For W46C, the abundance fitness was -0.4 ± 0.16.
W46R showed an abundance fitness of -0.058 ± 0.081.
W46A gave an abundance fitness of -0.283 ± 0.1.
In the case of F51L, the abundance fitness is reported as 0.092 ± 0.096.
Variant F51K has an abundance fitness of -0.202 ± 0.18.

Source: the Human Domainome abundance scans (Beltran et al. 2025)
